Consider 19 sequences from the DeepSol protein solubility set.

A short description of the series: soluble on expression in E. coli; label from the status in PepcDB or PDB records.
As to “MSLTDASFPALPPPLVSLGDLAWDVLAKPDTLLLPGGDTTGRLELSGGGSAANLAVWAARLGAPTTFVGKIGQDRFGELATAELRAEGVRAEVLASAAHPTGVILALIDRRGQRAMLTGQGADWELLPEELPRDVLSSAGHLHLTAWSLFRDPPRAAALEAARIAKAGGATLSLDPGSFQMIQQLGREAFLNIVDALPFDVMFPNDDEARAMSGERDNEAALTWLRARYPRALIALKMDEDGALIEGPQTARVQVPATRDPLVDATGAGDAFGGAFLSQWLRHHDAERAARVAVQVGGWVVSRFGARPPADPDLTRRLASVGADLLTPDPAAAPDPSQDSPEVNEGHHHHHH”, the “soluble on expression in E. coli” value is on record as “soluble”.
For the sequence “MSLKFIEKMLPEESPIDLLINLSRRGEAAVVLLKDAIEDYFTGKFGEGHLNRVISLERESDEIKSKLKKMYLKMKYTYFEKDDFLYIVHKADEILDVVRDIVIMLDMNRVEDVPENIKELFAELVENVLDTIRETTEAIEQLRTLAESGFSPFEKEKEEREIFDVSMEEREVDTISRNLGKKLYSLKNSMNPVDLIFLNKVARLISKIADQGKDITKRINSILREGHHHHHH”, the “soluble on expression in E. coli” value is given as “soluble”.
The value for “MVTLEDMSQYLDEFLADARDRIDSLSNAILTLEKIVKEGGSEEEKTELINQIFRDAHTLKGTAATMGFMKLSETAHKMENIFDAIRNSQLELTPELVDLVLDFLDAIDAMVNNIEESGNEGDVDVSDLFERADEFLGGSKKEIKPEEKPKEAEKKEEKVAEEVPSAEGKVYYIKVKFQKDAPLKGVRAFLILSDLEERGEVIWTNPGREIIENGNLEGDVVEFRIVSETPKEELETVIKRHPEVESVEIVEEKKKEEAGEKAVEGKEYVVRVYFQPDTPLKGPRSYLILNDLEKIGEILSTNPSRQDIEEGNLIENKFFEVVLRTSESKEKISEILKKHPDVLNFTITEKEEEKKEEKKEAKKQPPKQPKKPPIIETPKVKISRVIKIDVGHLDKLMNLVGELVITKGRLEQIGERLGDRELFEALSTLSRLLTELQDEIMEMRLTPIAEVFNKFPRMVRDLARKMGKEVEFVMEGADIEVDRTILEKLGDALVHLLRNAVDHGIEPPEERVKLGKPRAGRVELIAKREKNHVVIIVRDDGRGIDPEKVKRKAVERGLITPEEAANLSDEEAINLIFLPGFSTADKVTDVSGRGVGMDVVKEVVKSMNGSISVQTEVGKGTTFILKLPISMAIIQALLIRVEDETYAIPINNILETIEVDPSILKTVGGKPVIVLRGEIIPVIMLHELFGLPAPQVDRFPAIIVDHGAQKVAIGVDELLHKRDIVIKSLGKFLSNVRGFAGATILGDGSVVLIIDIGGLLGGGYSG” was “soluble”.
The value for “MYVALWYKHGKPIHGRSWNNGGVVECSFPYKEAELTTKQQLEGQIQVLQYVGDHNNQGFWYEWIKYKDRIEKIDDKHQLVRCGDSFPIFWKRKEGNLLGYVDNKTEEGWFSFNGKVIKQVGPQLNDMYIITRNCVGGPPYCECENCPKLPPPPPIPPPGPPPPRVMHDEWIDIREGDPWPTRKLVKALDKSLDTLPGVSADQYVALWYMQGEPVMGRVWNEGGKVAANFSWFNNEYCKNVGSIQLLVRLGPHVVGYEYGWIPFPEAANFDAGKIWKPVHVNNHKGDISVGVVNLPGGKQILAKVDVRNESYGYGYQGKEHSARGPACASSVTVLCRKALPGYQLDG” was “not soluble”; that for “MLILGHPLIPSARFVFIKNTDAIHSNTNNDIVCFEAHPKNLELAKYCCENSVHFSVIFLSHKIETDTFFLFNAFKPLYCIFKDIKQAILAQQHATNYLLDSKILFFMDLNDTELWEICAKSQIDGVISKDSLLLK” was “soluble”.
With “MASVHGITVKNAQGEDTPLSNYQGKVLIIVNVASQCGLTNSNYNQFKELLDVYKKDGLEVLAFPCNQFGGQEPSCEIDIAAFVADKFKFEPTLFQKIDVNGDNTAPLYKFLKQEKGGFLVDAIKWNFTKFLVGRDGHVIKRFSPTTEPKDMKKDIEAALQAKL”, the “soluble on expression in E. coli” value is given as “not soluble”.
Consider “MMARVTPDQALISFRNARILWAGHSESRKAVEQQIESLLTAMEKPADYARQLELQREHLDVLKWQINCAARECIYSQHQLMEACTEDALSNFMQANGAALTSALAPFLKGRGGVDVASRILRNALVRQLAITPPEIAGDYRMILDESGVMPDPMMVRDCQSSYTPAQQLRFQQRLDYINGMQE”, for which the “soluble on expression in E. coli” value is given as “soluble”.
The value for “MAEVHVRELKGWEEMEEVVALQREVWGRAESDLVPRGLLVAVQDEGGLVAGAFAEGRMVGFVFGFPTKDPALHHSHMLGVLEAYRGTGAALLLKRFQRDWCLARGVRRVVWTFDPMRGVNANFNLRKLGATAKTYLPDHYGPMSGINAGAPSDRLLAEWDLLSERVYARLYAPPPEPEVAGLPQANRVEGEVPLEARLDLEAERLLFQIPEDWGRILREDPALALKWREHSRLVLPHYFARGYRLVDLVRHPNRYVLAKD” was “soluble”; that for “MLLALKGIRKVYRMGEVAFSALKGVDLEVEEGEMLAIMGPSGSGKSTLLHILGLLDRPTEGEYVLMDRPTSRLAEDERAFLRNRFLGFVFQAFFLLPRLSALENVEVPLAYAGVPPGTRRRRALELLERVGLLEKANNLPNQLSGGQRQRVAIARALALNPPLLLADEPTGALDTRTGEEILALFQELNREGTTVILVTHEPHVAEKTNRIVRVLDGEIVADERRHHG” was “soluble”; that for “MLCTHIKAEDCVERVPKGMFRKKQDMEDNNLFLEGNSNRGKVVKNQEIIKTFCDECDNCNKSLMCLTCGRILCGRNDSGHALHHFEETSHPVVIDCISFELYCYSCDDEVSLDFEPSLYGVLKSLKLLFDREDVMEGGDGPTIPAQPFHSRKNRISHEKSDKLRFSVKKTPIFLRNSIFLSGISENFDFSVKNGKKHQKSIFPPKKPKKSDLSAQKTSKSVFAPKQPKNSEFFNPKKHQISIFPTKNPQKFLFSVEKSIFSTINVQKCAPKKHQISIFPPKKPKNSDFPLKNPQFSFRTVTSVASTFTQKLHVAPASRNSKKKRGKKGKVSPMFVDTPPFQQQQGAAVIHDVTLSSTNSTSSGSGGATSSSEIAYRPRGMRNVGNTCFMNAVLQALASISEFREYIMSLSSLEDYIHDEKEPKNGGNYCYLTDEYRKLLISQSARSFREPTAPNEFREAFISVCPRFRGFRQHDSHEFMRYFMDSLHTEMRKCRKLPGMPDDKHTPISKYFEGTLQSSVICQTCRNCSNKIDEFMDLSLDIPAQRNASKVRLSDCLSTFFKLEMLEKGEKPECAKCKTKQTCSKQMFIRKLPQDSDEAPCTYSLQSIIVHIGYGCGSGHYIAFGKRNGRWFQFDDTVVKGVDEAHVSKQKAYVLLYTKIIRKID” was “not soluble”.
The result for “MASTFNPRECKLSKQEGQNYGFFLRIEKDTDGHLIRVIEEGSPAEKAGLLDGDRVLRINGVFVDKEEHAQVVELVRKSGNSVTLLVLDGDSYEKAVKNQVDLKELDQSQREAALNDKKPGPGMNGAVEPCAQPRLCYLVKEGNSFGFSLKTIQGKKGVYLTNIMPQGVAMKAGVLADDHLIEVNGENVENASHEEVVEKVTKSGSRIMFLLVDKETARCHSEQKTQFKRETASLKLLPHQPRVVVIKKGSNGYGFYLRAGPEQKGQIIKDIEPGSPAEAAGLKNNDLVVAVNGKSVEALDHDGVVEMIRKGGDQTTLLVLDKEAESIYSLARFSPLLYCQSQELPNGSVKEGPAPIPAPLEATGSEPTEDAEGHKPKLCRLLKEDDSYGFHLNAIRGQPGSFVKEVQQGGPADKAGLENEDVIIEVNGENVQEEPYDRVVERIKSSGKHVTLLVCGKMAYSYFQAKKIPIVSSMAEPLVAGPDEKGETSAESEHDAHPAKDRTLSTASHSSSNSEDTEM” reads “soluble”; that for “MHIVIVGAGAVGGFFGGLLHESGTKVTFVARGKSLDALQRRGMRLHDASGVRDIRVPVVEDLSHVPDADVVILATKTLGSVDVPKNLPKSAVLVTTQNSVEMPHIAVEALGVDRVIPGVVRSFLTKRGPAEAEFSGGIFTFTFGCMSEATRGIVDKLAHVLDRAGIEPVVHPAIMTDIWFKAMFVTCFGALGALVNQPLGVVRTTYRDDFKALINEVVTAGQAHGVDFPEDVVDRVLAFADAQPKGATSSMQRDLANGLPSELDAQAGAVVRMAQRVGVDARLHHLVGNVLSHKHSD”, “soluble”.
The value for “MYEIIRMGVRNMLITFHSKVAAEVLMRTDDAAPLLRAAGKSFRDAIPERGVFTADQLQSAITGLERAIAAADRSPPDDDEPHPDKEPVHPIELAVGLHQRAFPLLDMMRKTAAAGADLTWEVSRGW” was “not soluble”; that for “MAHHHHHHMKEEIPQLQNLERDLLKQRNKYLSKVGNLLNKDVVISNDEDNNKVVTTWGVCKRLEVITDESSEENKSGKGGSKDGGSNKREVPSSSSISGGVVHPNSSIEGKKYYYHFDLLRKIVGANFKKGIQVAGHRGYYFTGAGFFLHNAILQYAINFLVSKNYTPVYPPFFMKKNIMEECAELDDFEETLYKIASSGGNSTATTGTASGALVSKNLNQNDELSRDDLFLIATSEQPLCALHKDETIESKYLPLKYAGVSSCFRKEAGAHGKDIRGILRVHQFDKIEQFCLSLPQTSSKVHKQMMKTCEEFYQSLNIPYRIVSIVSGALNNAAAIKYDLEGYFPSSNQYRELVSCSNCTDYQSNNLNVKYVDSSVRITDVKEDRKKKENTGDHQDDDDDDEIGSDHEEFLKNFHTESRNNVHLLNGTMVAAQRFLCCLLENYQNGEGIVVPEKLRPYMNNVDFIPFIE” was “not soluble”; that for “MGSDKIHHHHHHMTGRNILTESESDRGRVLFSPAFRRLQQKAQVFSMEPNAAVRSRLTHSFEVSQIGRYIADLLSEKLGIATEQQAGALVNFVETACLMHDIGNPPFGHFGEEAIKKWFEDNGERCLRLSIGRPKPSDGACPDQAKVRDALVDFADFDGNPQGLRIVARLQWNTDEFGLNLTKTSLASFMKYIRMAGGEKSGIFTKKAGYFTTERDLVESVWREFGYELPQRFPLAYIMEAADDIAYCISDLEDSFEKDIVRPDDALSYVEEQYERHEFEDGDPKHVDIRRAIRQMRAKERESGGEFTFTDFRTSLNNVIVNYVADRYVENHSKILDGTLESLIPGNEPPGAILNAIRKFCREHVYTHESVQRVELAGYNAIRGLLEQCSSLLCISAEGFRAARANEKQDAKGQALVLEPKLLRLFPEKYIKVYDYHLKQAGGDEADPFLEWTYRAHLIVDFISGMTDDFAMTTYRTLAGMRL” was “not soluble”.
Consider “MHTIDVIDSHTAGEPTRVVLAGFPDLGDGDLAQCRERFRSDFDHWRSAIACEPRGSDTMVGALLLPPRDPSACTGVIFFNNVGYLGMCGHGTIGVVRTLAELGRIAPGQHRIETPVGTVGVALADDGTVSIDNVESYRHAAGVEVDVPGHGRVRGDVAWGGNWFFITEQAPCALGLAQQRELTAYTEAIRLALEAAGITGEAGGEIDHIEISGVAPDGSGAARNFVLCPGLAYDRSPCGTGTSAKLACLAADGKLAEGERWLQQGILGSAFEGSYRHSGRGIAPRISGHAFITARSQLLIDPADPFAWGIVALEHHHHHH”, for which the “soluble on expression in E. coli” value is given as “not soluble”.
As to “VATLNESIEAGLEPGAVALILEAFPIEDRVRLWRALPLELHIDVLTEMRADVRFSIINALSEVELKLTLAKLDNLSLIEWADSLPESIINEALALIEKDELELYDQANEYEDDELGRWAERKIITLPFNITVGTAKQLMERYSYDTPQQVYLINRNKQFRGAVNYYEILRSDSGVRLKTLEIETVTVLDSKMTLPEAVEALEHSALPALPVTDADQTLIGEVDWQFALSTQREIYEARLMAGTGMDEGDDLFAPVLKSSQKRGV”, the “soluble on expression in E. coli” value is recorded as “not soluble”.
On to “MTGAVCPGSFDPVTLGHVDIFERAAAQFDEVVVAILVNPAKTGMFDLDERIAMVKESTTHLPNLRVQVGHGLVVDFVRSCGMTAIVKGLRTGTDFEYELQMAQMNKHIAGVDTFFVATAPRYSFVSSSLAKEVAMLGGDVSELLPEPVNRRLRDRLNTERT”, for which the “soluble on expression in E. coli” value is “not soluble”.
Turning to “MKITREELAVQVDVAQWSWLRAHLERGGLIVVNRGLDLVEVGVSIASDDTAVVGDWIQTGLLAKPSAEQISAWDANEEISFSALIISPYVLIQEQKQ”, the “soluble on expression in E. coli” value was “not soluble”.
